Measurements reported in publication PMC2606041 (Structure (London, England : 1993), 2008).

Legend:
NMR solution structure = molecular target: the molecule itself; assay: NMR solution structure
SEC = molecular target: the molecule itself; assay: SEC

Protein	binding result (NMR solution structure)	stoichiometry N (SEC)
AbhN (N-terminal DNA-binding domain of Abh, residues 1-54) (domain or fragment, Bacillus subtilis, UniProt P39758 1-54, looked up) MKSIGVVRKVDELGRIVMPIELRRALDIAIKDSIEFFVDGDKIILKKYKPHGVC	binds	–
SpoVTN (N-terminal DNA-binding domain of SpoVT, residues 1-55) (domain or fragment, Bacillus subtilis, UniProt P37554 1-55, looked up) MKATGIVRRIDDLGRVVIPKEIRRTLRIREGDPLEIFVDRDGEVILKKYSPISEL	–	2
